Test results: patent publication US20070110748A1

Tests used:
[1] = biological target: FnBP purified from S. aureus strain Newman (Staphylococcus aureus); experiment: competition ELISA on FnBP-coated wells; competitor anti-D121-34 F(ab')2 at 100 µg/ml
[2] = biological target: FnBP purified from S. aureus strain Newman (Staphylococcus aureus); experiment: competition ELISA on FnBP-coated wells; competitor anti-D320-33 F(ab')2 at 100 µg/ml

Human plasma Fn, P02751 32-2296 (ligand), sequence (P02751 other isoform, or with tags, fused parts or gaps limits assumed): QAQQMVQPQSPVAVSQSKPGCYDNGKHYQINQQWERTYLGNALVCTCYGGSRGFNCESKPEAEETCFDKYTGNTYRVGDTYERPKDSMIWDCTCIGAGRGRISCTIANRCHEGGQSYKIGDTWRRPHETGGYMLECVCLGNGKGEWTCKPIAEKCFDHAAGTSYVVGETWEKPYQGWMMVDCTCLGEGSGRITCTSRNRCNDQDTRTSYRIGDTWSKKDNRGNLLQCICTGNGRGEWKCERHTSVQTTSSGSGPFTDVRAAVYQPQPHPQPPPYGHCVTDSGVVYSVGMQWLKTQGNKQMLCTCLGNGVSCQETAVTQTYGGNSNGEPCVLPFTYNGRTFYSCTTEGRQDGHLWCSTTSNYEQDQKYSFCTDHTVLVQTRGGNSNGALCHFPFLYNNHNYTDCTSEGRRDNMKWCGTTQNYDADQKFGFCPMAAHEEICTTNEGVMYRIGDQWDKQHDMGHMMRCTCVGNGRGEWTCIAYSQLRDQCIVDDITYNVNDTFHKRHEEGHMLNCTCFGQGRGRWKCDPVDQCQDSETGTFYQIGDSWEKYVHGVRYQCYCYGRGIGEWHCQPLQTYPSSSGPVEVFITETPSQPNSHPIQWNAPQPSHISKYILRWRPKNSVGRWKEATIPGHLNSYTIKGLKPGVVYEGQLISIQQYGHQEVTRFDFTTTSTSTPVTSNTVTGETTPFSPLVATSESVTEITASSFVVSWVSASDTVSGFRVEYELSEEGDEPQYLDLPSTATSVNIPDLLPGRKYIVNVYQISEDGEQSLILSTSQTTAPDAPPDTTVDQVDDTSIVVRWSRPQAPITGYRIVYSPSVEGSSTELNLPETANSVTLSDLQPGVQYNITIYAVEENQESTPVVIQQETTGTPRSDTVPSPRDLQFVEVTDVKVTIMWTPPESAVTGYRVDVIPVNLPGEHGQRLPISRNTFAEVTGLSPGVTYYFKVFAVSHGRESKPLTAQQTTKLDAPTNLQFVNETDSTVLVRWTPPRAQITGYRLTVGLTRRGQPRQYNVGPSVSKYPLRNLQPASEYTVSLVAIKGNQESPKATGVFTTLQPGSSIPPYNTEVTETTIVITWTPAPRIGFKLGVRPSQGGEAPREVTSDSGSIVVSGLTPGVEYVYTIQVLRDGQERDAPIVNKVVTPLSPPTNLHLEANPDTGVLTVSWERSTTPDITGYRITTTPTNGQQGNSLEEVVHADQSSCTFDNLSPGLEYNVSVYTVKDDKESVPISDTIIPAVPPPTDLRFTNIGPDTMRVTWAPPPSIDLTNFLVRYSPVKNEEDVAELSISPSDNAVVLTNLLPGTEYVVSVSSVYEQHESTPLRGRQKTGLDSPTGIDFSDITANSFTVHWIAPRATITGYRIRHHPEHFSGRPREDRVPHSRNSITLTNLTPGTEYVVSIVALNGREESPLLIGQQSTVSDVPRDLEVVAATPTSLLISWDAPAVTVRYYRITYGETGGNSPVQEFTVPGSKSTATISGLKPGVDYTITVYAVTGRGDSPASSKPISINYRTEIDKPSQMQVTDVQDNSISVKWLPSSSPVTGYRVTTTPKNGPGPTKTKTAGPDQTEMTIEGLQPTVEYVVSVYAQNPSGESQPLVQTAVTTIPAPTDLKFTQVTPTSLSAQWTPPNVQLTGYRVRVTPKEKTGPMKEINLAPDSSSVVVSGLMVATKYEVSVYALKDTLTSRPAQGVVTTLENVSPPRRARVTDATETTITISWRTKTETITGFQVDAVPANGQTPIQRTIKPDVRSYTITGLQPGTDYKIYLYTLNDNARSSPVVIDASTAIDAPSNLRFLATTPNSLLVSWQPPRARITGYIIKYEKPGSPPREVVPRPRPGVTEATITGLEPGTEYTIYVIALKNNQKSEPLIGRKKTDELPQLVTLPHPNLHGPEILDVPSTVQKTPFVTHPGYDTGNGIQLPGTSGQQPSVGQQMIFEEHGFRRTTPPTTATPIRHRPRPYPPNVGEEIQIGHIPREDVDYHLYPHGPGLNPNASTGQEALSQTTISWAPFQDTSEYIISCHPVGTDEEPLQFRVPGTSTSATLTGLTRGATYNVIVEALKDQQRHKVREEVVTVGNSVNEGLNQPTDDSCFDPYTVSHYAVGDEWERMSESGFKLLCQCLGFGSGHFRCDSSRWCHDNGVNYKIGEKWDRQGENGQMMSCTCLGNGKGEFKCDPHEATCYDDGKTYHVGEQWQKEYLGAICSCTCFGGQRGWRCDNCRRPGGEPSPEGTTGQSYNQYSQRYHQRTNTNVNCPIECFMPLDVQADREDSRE

Human plasma Fn, P02751 32-2296 (ligand)
concentration of soluble Fn at which F(ab')2 recognition of FnBP was virtually eliminated [1]: 50 µg/mL | concentration of soluble Fn at which F(ab')2 recognition of FnBP was virtually eliminated [2]: 50 µg/mL
